Test results from patent publication US20060141582A1 (ZymoGenetics, published 2006).
Blank lines part the entries; values can stand above or below the molecule they belong to.

Experiments:
[1] = biological target: CRF2-4/IL-22RA heterodimeric receptor on BaF3 cells (BaF3/CRF2-4/IL-22RA cells) (human) (UniProt Q08334); assay: cell-based or functional assay
[2] = biological target: T1, human IL-22RA on transfected cells (BaF3/IL-22RA/IL-20RB, BaF3/IL-22RA/CRF2-4, 293 or P815 cells) (human, UniProt Q8N6P7 16-574); assay: flow cytometry on P815 cells transfected with hIL-22RA, 5 ug/ml huIL-22-biotin; used to select the clone
T1 construct: also called huIL-22RA; hIL-22RA
T1 sequence: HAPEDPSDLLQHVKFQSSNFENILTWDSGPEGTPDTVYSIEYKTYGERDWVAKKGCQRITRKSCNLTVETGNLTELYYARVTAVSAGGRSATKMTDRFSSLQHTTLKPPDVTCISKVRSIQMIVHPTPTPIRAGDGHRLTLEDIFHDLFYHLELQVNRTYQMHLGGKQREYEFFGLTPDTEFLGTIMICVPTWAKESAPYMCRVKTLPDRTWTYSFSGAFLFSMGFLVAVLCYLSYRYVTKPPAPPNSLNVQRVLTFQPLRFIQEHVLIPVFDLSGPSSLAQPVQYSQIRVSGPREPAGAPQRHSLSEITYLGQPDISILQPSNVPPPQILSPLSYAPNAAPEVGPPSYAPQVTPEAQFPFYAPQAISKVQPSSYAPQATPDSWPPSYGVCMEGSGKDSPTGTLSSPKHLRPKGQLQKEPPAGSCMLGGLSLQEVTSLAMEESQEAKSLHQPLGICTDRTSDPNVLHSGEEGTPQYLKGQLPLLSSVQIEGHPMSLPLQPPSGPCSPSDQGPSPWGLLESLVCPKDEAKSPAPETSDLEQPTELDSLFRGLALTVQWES
Method: WT P815 Cells (ATCC No. TIB-64) were transfected with a plasmid vector containing the hIL-22RA cDNA sequence (e.g., SEQ ID NO:1) and a selectable puromycin-resistance marker, using Fugene Reagent according to the manufacturer's protocol (Roche, Indianapolis, Ind.). Cells were placed under Puromycin selection 48 hours following transfection. Puromycin-resistant transfectants were cloned by limiting dilution, and screened for their level of hIL-22RA cell surface expression by flow cytometry, using biotinylated human IL-22 (huIL-22-biotin). Briefly, cells were incubated with 5 ug/ml huIL-22-biotin for 30 minutes on ice and then washed. Binding of huIL-22-biotin to the cells was then detected using PE-labeled streptavidin at 1:500. Cells were analyzed on a Facscan flow cytometer using Cellquest software. (Becton Dickinson, San Jose, Calif.).

CRF2-4/IL-22RA heterodimeric receptor on BaF3 cells (BaF3/CRF2-4/IL-22RA cells) (human), sequence (Q08334 20-325 limits assumed, one chain of several): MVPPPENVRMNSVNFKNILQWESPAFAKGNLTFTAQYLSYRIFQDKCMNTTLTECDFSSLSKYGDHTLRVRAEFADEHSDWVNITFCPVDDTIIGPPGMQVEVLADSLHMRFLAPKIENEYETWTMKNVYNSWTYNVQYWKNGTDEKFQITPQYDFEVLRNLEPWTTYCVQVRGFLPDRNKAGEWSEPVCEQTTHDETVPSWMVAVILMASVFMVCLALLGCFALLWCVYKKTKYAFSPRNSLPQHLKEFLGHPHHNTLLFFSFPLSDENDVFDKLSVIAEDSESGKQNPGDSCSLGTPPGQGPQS

proliferation of BaF3/CRF2-4/IL-22RA cells (Alamar Blue), fold induction at 0.06 ng/ml IL-22-CEE (fold induction) [1]: 2
proliferation of BaF3/CRF2-4/IL-22RA cells (Alamar Blue), fold over background at 50 ng/ml IL-22-CEE (fold over background) [1]: 15
Molecule: IL-22-CEE (IL-22 polypeptide containing C-terminal GluGlu (EE) tag), purified from BHK 570 cells (ligand)

binding result [2]: binds
B1: biotinylated human IL-22 (ligand)
chain: APISSHCRLDKSNFQQPYITNRTFMLAKEASLADNNTDVRLIGEKLFHGVSMSERCYLMKQVLNFTLEEVLFPQSDRFQPYMQEVVPFLARLSNRLSTCHIEGDDLHIQRNVQKLKDTVKKLGESGEIKAIGELDLLFMSLRNACI
modifications: biotinylated (sites not given)
notes: also called huIL-22-biotin
